Read-outs that look alike come from different tables or passages of the source.
What was measured:
[1] = target: T1, Recombinant Human Fc gamma RI/CD64 Protein, CF (R&D Systems), His-tagged (human, UniProt P12314 16-288); test: SPR (Biacore T200): His-tagged human FcγRI captured on an anti-His antibody chip, antibody as analyte; RU plotted against antibody concentration
T1 construct: also called human FcγRI; hFcγRI

[2] = target: T1, Recombinant Human Fc gamma RI/CD64 …; test: SPR (Biacore T200), RU at 4.7 µM antibody, anti-CD70 antibody vorsetuzumab
[3] = target: T2, Recombinant Human Fc gamma RIIIB/CD16b Protein (R&D Systems), His-tagged (human, UniProt O75015 20-208); test: SPR (Biacore T200); receptor immobilized directly on CM5 chip, antibody as analyte at 4.7 µM
T2 construct: also called human FcγRIIIb; hFcγRIIIb
T2 chain: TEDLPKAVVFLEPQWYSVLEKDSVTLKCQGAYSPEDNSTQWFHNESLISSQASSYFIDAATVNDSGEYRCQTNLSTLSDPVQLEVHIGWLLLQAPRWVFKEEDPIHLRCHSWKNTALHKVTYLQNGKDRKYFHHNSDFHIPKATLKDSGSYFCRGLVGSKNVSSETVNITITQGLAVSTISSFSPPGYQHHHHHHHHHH

[4] = target: T3, Recombinant Human Fc gamma RIIB/C (CD32b/c) Protein (R&D Systems), His-tagged (human, UniProt P31994 46-217); test: as above
T3 construct: also called human FcγRIIb/c; hFcγRIIb/c
T3 sequence: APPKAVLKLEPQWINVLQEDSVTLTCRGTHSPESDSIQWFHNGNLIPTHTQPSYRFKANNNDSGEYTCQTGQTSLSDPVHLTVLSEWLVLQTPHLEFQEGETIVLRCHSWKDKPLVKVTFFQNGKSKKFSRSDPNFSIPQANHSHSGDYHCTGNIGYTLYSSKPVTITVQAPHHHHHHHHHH

[5] = target: T4, Recombinant Human Fc gamma RIIIA/CD16a protein (R&D Systems), His-tagged (human, UniProt P08637 17-208); test: as above
T4 construct: also called human FcγRIIIa; hFcγRIIIa
T4 sequence (P08637 other isoform, or with tags, fused parts or gaps): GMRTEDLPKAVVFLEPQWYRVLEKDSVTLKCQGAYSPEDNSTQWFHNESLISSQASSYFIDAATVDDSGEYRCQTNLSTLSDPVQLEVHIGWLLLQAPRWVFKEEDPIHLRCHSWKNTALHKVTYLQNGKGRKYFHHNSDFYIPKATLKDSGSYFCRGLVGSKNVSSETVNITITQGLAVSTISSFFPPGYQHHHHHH

[6] = target: T5, human FcRn (human neonatal Fc receptor large subunit p51 and beta2-microglobulin), biotinylated (human, UniProt P55899 24-297; P61769 21-119, biotinylated (site not stated)); test: BLI (Octet RED384), biotinylated FcRn on streptavidin biosensor, binding at pH 6.0, dissociation at pH 7.4
T5 sequence (P55899 24-297 limits assumed, chain 1 of 2): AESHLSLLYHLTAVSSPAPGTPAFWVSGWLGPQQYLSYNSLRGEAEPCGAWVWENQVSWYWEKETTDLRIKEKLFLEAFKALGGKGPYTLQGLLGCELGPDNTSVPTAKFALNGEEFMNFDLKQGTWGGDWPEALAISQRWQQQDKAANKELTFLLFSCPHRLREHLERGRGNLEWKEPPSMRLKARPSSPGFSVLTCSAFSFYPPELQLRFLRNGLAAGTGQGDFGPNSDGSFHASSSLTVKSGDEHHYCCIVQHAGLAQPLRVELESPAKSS
T5 sequence (P61769 21-119 limits assumed, chain 2 of 2): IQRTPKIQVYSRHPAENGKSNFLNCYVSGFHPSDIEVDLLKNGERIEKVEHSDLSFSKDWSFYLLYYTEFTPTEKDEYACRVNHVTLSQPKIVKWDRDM

[7] = target: T5, human FcRn (human neonatal Fc receptor …); test: BLI (Octet RED384), biotinylated FcRn on streptavidin biosensor, binding and dissociation at pH 6.0
[8] = target: T1, Recombinant Human Fc gamma RI/CD64 …; test: SPR (Biacore T200), RU at 4.7 µM antibody
[9] = target: T6, Recombinant Human Fc gamma RIIA/CD32a (H167) Protein (R&D Systems), His-tagged (human, UniProt P12318 34-218); test: SPR (Biacore T200), RU at 4.7 µM antibody
T6 construct: also called human FcγRIIa (H167); hFcγRIIa (H167)
T6 sequence: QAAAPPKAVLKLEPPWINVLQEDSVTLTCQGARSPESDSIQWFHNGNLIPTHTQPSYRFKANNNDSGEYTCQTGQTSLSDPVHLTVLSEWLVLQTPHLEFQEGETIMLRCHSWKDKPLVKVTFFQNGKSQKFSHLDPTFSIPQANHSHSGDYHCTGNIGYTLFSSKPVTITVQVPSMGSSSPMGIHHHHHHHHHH

[10] = target: T7, Recombinant Cynomolgus Fc gamma RIII/CD16 Protein (R&D Systems), His-tagged (cynomolgus, UniProt Q8SPW2 17-208); test: SPR (Biacore T200); receptor immobilized directly on CM5 chip, antibody as analyte at 4.7 µM
T7 construct: also called cynomolgus FcγRIII; cFcγRIII
T7 chain: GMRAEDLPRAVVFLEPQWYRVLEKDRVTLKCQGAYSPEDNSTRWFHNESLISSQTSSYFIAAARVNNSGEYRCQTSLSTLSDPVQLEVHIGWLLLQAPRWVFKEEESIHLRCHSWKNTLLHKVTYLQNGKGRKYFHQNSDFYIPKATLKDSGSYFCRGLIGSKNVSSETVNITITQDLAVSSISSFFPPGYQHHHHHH

[11] = target: T8, Recombinant Cynomolgus Fc gamma RIIB protein (R&D Systems), His-tagged (cynomolgus); test: as above
T8 construct: also called cynomolgus FcγRIIb; cFcγRIIb
T8 chain: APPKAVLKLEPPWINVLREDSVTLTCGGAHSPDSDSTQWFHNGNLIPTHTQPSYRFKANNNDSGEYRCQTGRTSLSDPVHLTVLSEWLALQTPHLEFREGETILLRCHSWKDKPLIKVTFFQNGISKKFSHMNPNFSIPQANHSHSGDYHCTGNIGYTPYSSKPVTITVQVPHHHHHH

[12] = target: T9, Recombinant Cynomolgus Fc gamma RIIA/CD32a Protein (R&D Systems), His-tagged (cynomolgus); test: as above
T9 construct: also called cynomolgus FcγRIIa; cFcγRIIa
T9 chain: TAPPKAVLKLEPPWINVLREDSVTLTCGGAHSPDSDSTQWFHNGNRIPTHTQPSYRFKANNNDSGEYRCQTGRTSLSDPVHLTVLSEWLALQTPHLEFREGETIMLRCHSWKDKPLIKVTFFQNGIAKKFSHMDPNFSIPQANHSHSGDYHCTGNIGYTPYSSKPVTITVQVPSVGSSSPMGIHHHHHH

[13] = target: T10, Recombinant Human Fc gamma RIIIA/CD16a (V176F) Protein (R&D Systems), His-tagged (human, UniProt P08637 17-208); test: as above
T10 construct: no further substitution applied; also called human FcγRIIIa (V176F); hFcγRIIIa (V176F)
T10 sequence (P08637 other isoform, or with tags, fused parts or gaps V176F V176F): as the sequence (P08637 other isoform, or with tags, fused parts or gaps) above, with V160F counted along it

[14] = target: T2, Recombinant Human Fc gamma RIIIB/CD16b …; test: as above
[15] = target: T3, Recombinant Human Fc gamma RIIB/C …; test: as above; remark: listed apart in the source
[16] = target: T4, Recombinant Human Fc gamma RIIIA/CD16a …; test: as above; remark: listed apart in the source
[17] = target: T6, Recombinant Human Fc gamma RIIA/CD32a …; test: as above
[18] = target: T1, Recombinant Human Fc gamma RI/CD64 …; test: SPR (Biacore T200), RU at 4.7 µM antibody, anti-LPS antibody O11-1111
[19] = target: T1, Recombinant Human Fc gamma RI/CD64 …; test: SPR (Biacore T200); His-tagged receptor captured on anti-His antibody chip, antibody as analyte at 4.7 µM; reference: LALA variant of the same antibody (anti-LPS O11-1111)
[20] = target: T11, Recombinant Human Fc gamma RIIA/CD32a (R167) Protein (R&D Systems), His-tagged (human, UniProt P12318 36-218); test: SPR (Biacore T200); receptor immobilized directly on CM5 chip, antibody as analyte at 4.7 µM
T11 construct: also called human FcγRIIa; hFcγRIIa
T11 chain: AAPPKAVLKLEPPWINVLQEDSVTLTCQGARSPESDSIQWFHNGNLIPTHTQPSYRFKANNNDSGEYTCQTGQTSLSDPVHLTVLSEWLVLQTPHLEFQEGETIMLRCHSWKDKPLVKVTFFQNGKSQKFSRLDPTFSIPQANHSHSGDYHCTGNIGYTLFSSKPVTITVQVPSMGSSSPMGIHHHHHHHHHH

T1 sequence (P12314 other isoform, or with tags, fused parts or gaps): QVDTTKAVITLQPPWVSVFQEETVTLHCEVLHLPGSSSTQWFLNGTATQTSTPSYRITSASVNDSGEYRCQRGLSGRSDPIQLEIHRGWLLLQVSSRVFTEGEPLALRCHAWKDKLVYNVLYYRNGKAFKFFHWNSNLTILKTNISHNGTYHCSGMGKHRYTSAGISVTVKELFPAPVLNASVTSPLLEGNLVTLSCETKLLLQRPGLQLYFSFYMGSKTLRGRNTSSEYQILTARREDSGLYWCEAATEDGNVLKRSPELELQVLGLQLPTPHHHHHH

B1: LALA-DG variant of the anti-CD70 antibody vorsetuzumab (IgG1) (antibody, name in EU numbering)
heavy: QVQLVQSGAEVKKPGASVKVSCKASGYTFTNYGMNWVRQAPGQGLKWMGWINTYTGEPTYADAFKGRVTMTRDTSISTAYMELSRLRSDDTAVYYCARDYGDYGMDYWGQGTTVTVSSASTKGPSVFPLAPSSKSTSGGTAALGCLVKDYFPEPVTVSWNSGALTSGVHTFPAVLQSSGLYSLSSVVTVPSSSLGTQTYICNVNHKPSNTKVDKRVEPKSCDKTHTCPPCPAPEAAGGPSVFLFPPKPKDTLMISRTPEVTCVVVGVSHEDPEVKFNWYVDGVEVHNAKTKPREEQYNSTYRVVSVLTVLHQDWLNGKEYKCKVSNKALPAPIEKTISKAKGQPREPQVYTLPPSREEMTKNQVSLTCLVKGFYPSDIAVEWESNGQPENNYKTTPPVLDSDGSFFLYSKLTVDKSRWQQGNVFSCSVMHEALHNHYTQKSLSLSPGK
light: DIVMTQSPDSLAVSLGERATINCRASKSVSTSGYSFMHWYQQKPGQPPKLLIYLASNLESGVPDRFSGSGSGTDFTLTISSLQAEDVAVYYCQHSREVPWTFGQGTKVEIKRTVAAPSVFIFPPSDEQLKSGTASVVCLLNNFYPREAKVQWKVDNALQSGNSQESVTEQDSKDSTYSLSSTLTLSKADYEKHKVYACEVTHQGLSSPVTKSFNRGEC
notes: also called Anti-CD70 Antibody LALA-DG
binding result [1]: no binding (tested: 4.7 µM)
RU value relative to the LALA variant [2]: ~0.005 fold
binding response (RU) [3]: -3.7 RU
binding response (RU) [4]: 1.3 RU
binding response (RU) [5]: -2.1 RU

B2: L234A/L235A/D265G (LALA-DG) variant of IgG1 WT of the anti-EGFR antibody panitumumab (antibody)
heavy: QVQLQESGPGLVKPSETLSLTCTVSGGSVSSGDYYWTWIRQSPGKGLEWIGHIYYSGNTNYNPSLKSRLTISIDTSKTQFSLKLSSVTAADTAIYYCVRDRVTGAFDIWGQGTMVTVSSASTKGPSVFPLAPSSKSTSGGTAALGCLVKDYFPEPVTVSWNSGALTSGVHTFPAVLQSSGLYSLSSVVTVPSSSLGTQTYICNVNHKPSNTKVDKRVEPKSCDKTHTCPPCPAPEAAGGPSVFLFPPKPKDTLMISRTPEVTCVVVGVSHEDPEVKFNWYVDGVEVHNAKTKPREEQYNSTYRVVSVLTVLHQDWLNGKEYKCKVSNKALPAPIEKTISKAKGQPREPQVYTLPPSREEMTKNQVSLTCLVKGFYPSDIAVEWESNGQPENNYKTTPPVLDSDGSFFLYSKLTVDKSRWQQGNVFSCSVMHEALHNHYTQKSLSLSPGK
light: not shown
notes: Mutations in both CH2 domains; positions are EU numbers
koff [6]: 2.2 s⁻¹
Kd [7]: 5.8 nM
RU value relative to the LALA-DA variant [8]: ~0.1 fold
RU value relative to the other variants [9]: ≤ 0.5 fold
binding response (RU) [10]: 3.8 RU
binding response (RU) [11]: 89 RU
binding response (RU) [12]: 19 RU
binding response (RU) [13]: -4.4 RU
binding response (RU) [14]: -0.3 RU
binding response (RU) [15]: 15 RU
binding response (RU) [16]: -2.7 RU
binding response (RU) [17]: 8.8 RU

B3: LALA-DG variant of the anti-LPS antibody O11-1111 (IgG1) (antibody)
heavy: QVQLVQSGAEVKKPGASVKVSCKASGYTFTSYWINWVRQAPGQGLEWMGNIYPGSSSINYNEKFKSRVTITADTSTSTAYMELSSLRSEDTAVYYCARTIYNYGSSGYNYAMDYWGQGTLVTVSSASTKGPSVFPLAPSSKSTSGGTAALGCLVKDYFPEPVTVSWNSGALTSGVHTFPAVLQSSGLYSLSSVVTVPSSSLGTQTYICNVNHKPSNTKVDKRVEPKSCDKTHTCPPCPAPEAAGGPSVFLFPPKPKDTLMISRTPEVTCVVVGVSHEDPEVKFNWYVDGVEVHNAKTKPREEQYNSTYRVVSVLTVLHQDWLNGKEYKCKVSNKALPAPIEKTISKAKGQPREPQVYTLPPSREEMTKNQVSLTCLVKGFYPSDIAVEWESNGQPENNYKTTPPVLDSDGSFFLYSKLTVDKSRWQQGNVFSCSVMHEALHNHYTQKSLSLSPGK
light: DIVMTQSPDSLAVSLGERATINCKASENVGNSVSWYQQKPGQPPKLLIYGASNRYTGVPDRFSGSGSGTDFTLTISSLQAEDVAVYYCGQSYSYPYTFGQGTKVEIKRTVAAPSVFIFPPSDEQLKSGTASVVCLLNNFYPREAKVQWKVDNALQSGNSQESVTEQDSKDSTYSLSSTLTLSKADYEKHKVYACEVTHQGLSSPVTKSFNRGEC
notes: substitutions in EU numbering; also called Anti-LPS Antibody LALA-DG
RU value relative to the LALA variant [18]: ~0.0033 fold
RU value relative to that of the LALA variant [19]: ~0.0033 ratio (LALA-DG RU / LALA RU)
binding response (RU) [20]: -2.2 RU
binding response (RU) [3]: -7.1 RU
binding response (RU) [4]: -2.6 RU
binding response (RU) [5]: -7.2 RU

Reference: US20240239915A1 (Zymeworks, published 2024)
